B1: STK38L (parent)
chain: RQLAYSTVGTPDYIAPEVFMQTGY
B2: HDAC6 (parent)
chain: KMKTRELHRESSNFDSIYICPSTF

Variants of: B1
Test: protein stability index of a GFP-peptide fusion (GPS, HEK-293T) (PSI 1-6); higher = more stable
Settings: c terminus: a fixed tail appended
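Also: lentivirally expressed fusions sorted by FACS into six bins by GFP to DsRed ratio, PSI derived from sequencing read proportions per bin multiplied by bin number.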

Variant | protein stability index
RQLAYSTVGTPDYIAPEVFMETGY [Q21E] | 3.22
RQLAYSTVGTPDYIAPEVFMFTGY [Q21F] | 2.21
RQLAYSTVGTPDYIAPEVFMGTGY [Q21G] | 2.27
RQLAYSTVGTPDYIAPEVFMHTGY [Q21H] | 2.79
RQLAYSTVGTPDYIAPEVFMITGY [Q21I] | 1.65
RQLAYSTVGTPDYIAPEVFMKTGY [Q21K] | 2.66
RQLAYSTVGTPDYIAPEVFMLTGY [Q21L] | 1.7
RQLAYSTVGTPDYIAPEVFMNTGY [Q21N] | 2.26
RQLAYSTVGTPDYIAPEVFMPTGY [Q21P] | 2.49
RQLAYSTVGTPDYIAPEVFMRTGY [Q21R] | 2.62
RQLAYSTVGTPDYIAPEVFMSTGY [Q21S] | 2.74
RQLAYSTVGTPDYIAPEVFMTTGY [Q21T] | 2.42
RQLAYSTVGTPDYIAPEVFMVTGY [Q21V] | 1.11
RQLAYSTVGTPDYIAPEVFMWTGY [Q21W] | 1.82
RQLAYSTVGTPDYIAPEVFMYTGY [Q21Y] | 1.51
RQLAYSTVGTPDYIAPEVFMQAGY [T22A] | 2.13
RQLAYSTVGTPDYIAPEVFMQCGY [T22C] | 2.24
RQLAYSTVGTPDYIAPEVFMQDGY [T22D] | 3.02
RQLAYSTVGTPDYIAPEVFMQEGY [T22E] | 3.46
RQLAYSTVGTPDYIAPEVFMQFGY [T22F] | 2.09
RQLAYSTVGTPDYIAPEVFMQGGY [T22G] | 3.65
RQLAYSTVGTPDYIAPEVFMQHGY [T22H] | 2.63
RQLAYSTVGTPDYIAPEVFMQIGY [T22I] | 2.39

Variant | protein stability index
RQLAYSTVGTPDYIAPEVFMQKGY [T22K] | 2.32
RQLAYSTVGTPDYIAPEVFMQLGY [T22L] | 1.96
RQLAYSTVGTPDYIAPEVFMQMGY [T22M] | 2.48
RQLAYSTVGTPDYIAPEVFMQNGY [T22N] | 2.98
RQLAYSTVGTPDYIAPEVFMQPGY [T22P] | 3.18
RQLAYSTVGTPDYIAPEVFMQQGY [T22Q] | 3.04
RQLAYSTVGTPDYIAPEVFMQRGY [T22R] | 2.85
RQLAYSTVGTPDYIAPEVFMQSGY [T22S] | 2.77
RQLAYSTVGTPDYIAPEVFMQVGY [T22V] | 1.68
RQLAYSTVGTPDYIAPEVFMQWGY [T22W] | 1.36
RQLAYSTVGTPDYIAPEVFMQYGY [T22Y] | 2.47
RQLAYSTVGTPDYIAPEVFMQTAY [G23A] | 2.34
RQLAYSTVGTPDYIAPEVFMQTCY [G23C] | 1.6
RQLAYSTVGTPDYIAPEVFMQTDY [G23D] | 2.83
RQLAYSTVGTPDYIAPEVFMQTEY [G23E] | 2.5
RQLAYSTVGTPDYIAPEVFMQTFY [G23F] | 1.52
RQLAYSTVGTPDYIAPEVFMQTHY [G23H] | 2.16
RQLAYSTVGTPDYIAPEVFMQTIY [G23I] | 1.99
RQLAYSTVGTPDYIAPEVFMQTKY [G23K] | 2.59
RQLAYSTVGTPDYIAPEVFMQTLY [G23L] | 2.28
RQLAYSTVGTPDYIAPEVFMQTMY [G23M] | 1.63
RQLAYSTVGTPDYIAPEVFMQTNY [G23N] | 2.57
RQLAYSTVGTPDYIAPEVFMQTPY [G23P] | 2.35

Variant | protein stability index
RQLAYSTVGTPDYIAPEVFMQTQY [G23Q] | 2.28
RQLAYSTVGTPDYIAPEVFMQTRY [G23R] | 2.83
RQLAYSTVGTPDYIAPEVFMQTSY [G23S] | 2.5
RQLAYSTVGTPDYIAPEVFMQTTY [G23T] | 2.06
RQLAYSTVGTPDYIAPEVFMQTVY [G23V] | 1.81
RQLAYSTVGTPDYIAPEVFMQTWY [G23W] | 1.6
RQLAYSTVGTPDYIAPEVFMQTYY [G23Y] | 1.86
RQLAYSTVGTPDYIAPEVFMQTGA [Y24A] | 3.35
RQLAYSTVGTPDYIAPEVFMQTGD [Y24D] | 4.18
RQLAYSTVGTPDYIAPEVFMQTGE [Y24E] | 4.54
RQLAYSTVGTPDYIAPEVFMQTGF [Y24F] | 2.19
RQLAYSTVGTPDYIAPEVFMQTGG [Y24G] | 3.43
RQLAYSTVGTPDYIAPEVFMQTGH [Y24H] | 3.26
RQLAYSTVGTPDYIAPEVFMQTGI [Y24I] | 2.63
RQLAYSTVGTPDYIAPEVFMQTGK [Y24K] | 3.38
RQLAYSTVGTPDYIAPEVFMQTGL [Y24L] | 2.44
RQLAYSTVGTPDYIAPEVFMQTGM [Y24M] | 2.67
RQLAYSTVGTPDYIAPEVFMQTGN [Y24N] | 3.35
RQLAYSTVGTPDYIAPEVFMQTGP [Y24P] | 3.25
RQLAYSTVGTPDYIAPEVFMQTGQ [Y24Q] | 3.53
RQLAYSTVGTPDYIAPEVFMQTGR [Y24R] | 3.06
RQLAYSTVGTPDYIAPEVFMQTGT [Y24T] | 3.42
RQLAYSTVGTPDYIAPEVFMQTGW [Y24W] | 2.33

Variants of: B2
Test: as above
Settings: c terminus: a fixed tail appended

Variant | protein stability index
KMKTRELQRESSNFDSIYICPSTF [H8Q] | 2.92
KMKTRELHRESSNFDSIYICPCTF [S22C] | 1.85
KMKTRELHRESCNFDSIYICPSTF [S12C] | 1.89
KMKTRESHRESSNFDSIYICPSTF [L7S] | 3.05
KIKTRELHRESSNFDSIYICPSTF [M2I] | 2.15
KMKTRELHREKSNFDSIYICPSTF [S11K] | 2.72
KMKTRELMRESSNFDSIYICPSTF [H8M] | 1.97
KMKTRELHRESSNFDSIYICPSTS [F24S] | 2.96
KMKTRELHRESSNGDSIYICPSTF [F14G] | 4.12
KMKTRELHMESSNFDSIYICPSTF [R9M] | 1.84
KMKTRELHRESSNFGSIYICPSTF [D15G] | 1.69
KMKTRELHRESSNFDSIYIDPSTF [C20D] | 2.54
QMKTRELHRESSNFDSIYICPSTF [K1Q] | 2.23
KLKTRELHRESSNFDSIYICPSTF [M2L] | 1.99
KMKTRERHRESSNFDSIYICPSTF [L7R] | 3.2
KMKTRELHREPSNFDSIYICPSTF [S11P] | 2.13
KMKTRELHRESSMFDSIYICPSTF [N13M] | 2.58
KMKTREAHRESSNFDSIYICPSTF [L7A] | 3.33
KMKTRELHRESSNFDSIYIRPSTF [C20R] | 2.61
KMKTRELHRESSNFDSIYICPSTW [F24W] | 2.65
KMKTPELHRESSNFDSIYICPSTF [R5P] | 2.36
KMKTRELHRESSNFDSICICPSTF [Y18C] | 2.29
KMKTRELHRLSSNFDSIYICPSTF [E10L] | 2.15
KMKTRELHRESSNFDSAYICPSTF [I17A] | 2.96
KMKTWELHRESSNFDSIYICPSTF [R5W] | 1.72

Reference: the supplement of paper PMC10567573
